# Experimental data as given in patent US20230075633A1 (SHANDONG BOAN BIOTECHNOLOGY, published 2023).
# Read-outs that look alike come from different tables or passages of the source.
# T1: Cynomolgus monkey CD3 protein (cynomolgus monkey, UniProt Q95LI5 22-117)
# T1 sequence (looked up): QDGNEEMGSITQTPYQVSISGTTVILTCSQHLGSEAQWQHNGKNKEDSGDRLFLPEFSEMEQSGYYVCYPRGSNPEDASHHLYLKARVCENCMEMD
# T2: human CEA (human, UniProt P06731 35-702)
# T2 sequence (looked up): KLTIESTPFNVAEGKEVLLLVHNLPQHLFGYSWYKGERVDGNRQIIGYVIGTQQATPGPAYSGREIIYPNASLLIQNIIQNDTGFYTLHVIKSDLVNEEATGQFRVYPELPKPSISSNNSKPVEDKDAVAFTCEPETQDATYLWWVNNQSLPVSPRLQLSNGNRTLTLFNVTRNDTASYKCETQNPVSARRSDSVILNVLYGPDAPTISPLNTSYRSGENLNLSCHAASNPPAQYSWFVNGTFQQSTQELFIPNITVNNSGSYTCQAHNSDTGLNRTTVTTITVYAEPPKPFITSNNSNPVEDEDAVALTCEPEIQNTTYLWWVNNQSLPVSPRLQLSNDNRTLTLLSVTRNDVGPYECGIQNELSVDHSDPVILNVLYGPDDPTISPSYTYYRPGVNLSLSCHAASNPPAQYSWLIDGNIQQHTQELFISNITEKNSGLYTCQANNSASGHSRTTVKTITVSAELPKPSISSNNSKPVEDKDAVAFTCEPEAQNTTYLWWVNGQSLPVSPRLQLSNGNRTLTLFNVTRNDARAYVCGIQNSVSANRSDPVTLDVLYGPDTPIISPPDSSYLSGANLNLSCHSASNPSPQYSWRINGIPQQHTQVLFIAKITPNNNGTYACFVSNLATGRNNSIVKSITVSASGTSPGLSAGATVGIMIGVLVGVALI
# Assays:
# human CD3 [1] = target: T3, human CD3 (human, UniProt P07766 23-207); assay: cell-based or functional assay
# T3 sequence (P07766 23-207): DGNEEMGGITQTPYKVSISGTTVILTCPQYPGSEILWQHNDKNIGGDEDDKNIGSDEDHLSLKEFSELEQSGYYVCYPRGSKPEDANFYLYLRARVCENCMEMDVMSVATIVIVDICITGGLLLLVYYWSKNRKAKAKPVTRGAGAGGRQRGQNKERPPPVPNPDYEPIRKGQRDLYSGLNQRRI
# [2] = target: T1, Cynomolgus monkey CD3 protein; assay: ELISA on cynomolgus monkey CD3 protein, curve fit
# human CEA [3] = target: T2, human CEA; assay: cell-based or functional assay
# human CEA [4] = target: T2, human CEA; assay: cell-based or functional assay; remark: listed apart in the source
# human CD3 [5] = target: T3, human CD3; assay: cell-based or functional assay; remark: listed apart in the source
Binder,NFAT-luciferase in Jurkat cells: Bottom (human CD3 [1]),NFAT-luciferase in Jurkat cells: LogEC50 (human CD3 [1]),NFAT-luciferase in Jurkat cells: Span (human CD3 [1]),NFAT-luciferase in Jurkat cells: Top (human CD3 [1]),Bottom (best-fit) [2],LogEC50 [2],Span (best-fit) [2],Top (best-fit) [2],lysis of KATO III cells by PBMC: Bottom (human CEA [3]),lysis of KATO III cells by PBMC: LogEC50 (human CEA [3]),lysis of KATO III cells by PBMC: Span (human CEA [3]),lysis of KATO III cells by PBMC: Top (human CEA [3]),lysis of LS-174T cells by PBMC: Bottom (human CEA [4]),lysis of LS-174T cells by PBMC: LogEC50 (human CEA [4]),lysis of LS-174T cells by PBMC: Span (human CEA [4]),lysis of LS-174T cells by PBMC: Top (human CEA [4]),NFAT-luciferase in Jurkat cells: Bottom (human CD3 [5]),NFAT-luciferase in Jurkat cells: LogEC50 (human CD3 [5]),NFAT-luciferase in Jurkat cells: Span (human CD3 [5]),NFAT-luciferase in Jurkat cells: Top (human CD3 [5])
"CEA/CD3 parental BsAb (bispecific antibody, V domains shown, also called hT84.66/SP34 bispecific antibody; CEA/CD3 parental bispecific antibody; copies: 2 + 2 + 2 + 2) VH 1: EVQLVESGGGLVQPGGSLRLSCAASGFNIKDTYMHWVRQAPGKGLEWVARIDPAQGNTKYADSVKGRFTISADTSKNTAYLQMNSLRAEDTAVYYCAPFGYYVSDYAMAYWGQGTLVTVSS VL 1: DIQLTQSPSSLSASVGDRVTITCRAGESVDIFGVGFLHWYQQKPGKAPKLLIYRASNLESGVPSRFSGSGSRTDFTLTISSLQPEDFATYYCQQTNEDPYTFGQGTKVEIK VH 2: not shown VL 2: not shown",39.9,-1.52,1280,1320,0.0164,-1.65,4.09,4.1,60.1,-1.85,53,113,13.8,-2.69,91.7,106,-1040,-0.58,121000,120000
CEA/CD3OPT1a3b2b2 (bispecific antibody) chain 1: EVQLVESGGGLVQPGGSLRLSCAASGFNIKDTYMHWVRQAPGKGLEWVARIDPAQGNTKYADSVKGRFTISADTSKNTAYLQMNSLRAEDTAVYYCAPFGYYVSDYAMAYWGQGTLVTVSS chain 2: DIQLTQSPSSLSASVGDRVTITCRAGESVDIFGVGFLHWYQQKPGKAPKLLIYRASNLESGVPSRFSGSGSRTDFTLTISSLQPEDFATYYCQQTNEDPYTFGQGTKVEIK chain 3: EVQLVESGGGLVKPGGSLKLSCAASGFTFSTYAMNWVRQAPGKGLEWVARIRSKYNNYATYFADSVKDRFTISRDDSKNTAYLQMNNLRTEDTAVYYCVRHGNWGNSYISYWAYWGQGTTVTVSSQSVLTQPPSVSAAPGQRVTISCSGSTGAVTSGYYPNWYQQLPGTAPRLLIGGTKFLAPGTPDRFSGSSKSTSAALAISGVQSEDEADYYCALWYSNRWVFGGGTKLTVLG,,,,,,,,,,,,,,,,,3450,-0.0275,2670,6120
"CEA/CD3OPT3a (bispecific antibody, V domains shown, Same format as m1; copies: 2 + 2 + 2 + 2) VH 1: EVQLVESGGGLVQPGGSLRLSCAASGFNIKDTYMHWVRQAPGKGLEWVARIDPAQGNTKYADSVKGRFTISADTSKNTAYLQMNSLRAEDTAVYYCAPFGYYVSDYAMAYWGQGTLVTVSS VL 1: DIQLTQSPSSLSASVGDRVTITCRAGESVDIFGVGFLHWYQQKPGKAPKLLIYRASNLESGVPSRFSGSGSRTDFTLTISSLQPEDFATYYCQQTNEDPYTFGQGTKVEIK VH 2: not shown VL 2: not shown",52.8,-1.66,1400,1460,0.00466,-1.94,4.01,4.02,54.7,-2.21,48.1,103,13.1,-2.86,92.2,105,,,,
"CEA/CD3OPT3 (bispecific antibody, V domains shown) VH 1: EVQLVESGGGLVQPGGSLRLSCAASGFNIKDTYMHWVRQAPGKGLEWVARIDPAQGNTKYADSVKGRFTISADTSKNTAYLQMNSLRAEDTAVYYCAPFGYYVSDYAMAYWGQGTLVTVSS VL 1: DIQLTQSPSSLSASVGDRVTITCRAGESVDIFGVGFLHWYQQKPGKAPKLLIYRASNLESGVPSRFSGSGSRTDFTLTISSLQPEDFATYYCQQTNEDPYTFGQGTKVEIK VH 2: EVQLVESGGGLVKPGGSLKLSCAASGFTFNKYAMNWVRQAPGKGLEWVARIRSKYNNYATYYADSVKDRFTISRDDSKNTAYLQMNNLRTEDTAVYYCVRHGQWGNSYISYWAYWGQGTTVTVSS VL 2: not shown",119,-5.66,-41.4,78,,,,,,,,,,,,,,,,
"CEA/CD3OPT1a3b (bispecific antibody, V domains shown, Same format as m1; also called OPT SP34 1a3b; copies: 2 + 2 + 2 + 2) VH 1: EVQLVESGGGLVQPGGSLRLSCAASGFNIKDTYMHWVRQAPGKGLEWVARIDPAQGNTKYADSVKGRFTISADTSKNTAYLQMNSLRAEDTAVYYCAPFGYYVSDYAMAYWGQGTLVTVSS VL 1: DIQLTQSPSSLSASVGDRVTITCRAGESVDIFGVGFLHWYQQKPGKAPKLLIYRASNLESGVPSRFSGSGSRTDFTLTISSLQPEDFATYYCQQTNEDPYTFGQGTKVEIK VH 2: EVQLVESGGGLVKPGGSLKLSCAASGFTFSTYAMNWVRQAPGKGLEWVARIRSKYNNYATYYADSVKDRFTISRDDSKNTAYLQMNNLRTEDTAVYYCVRHGNWGNSYISYWAYWGQGTTVTVSS VL 2: not shown",,,,,0.00304,-1.84,4.03,4.03,64.6,-0.946,39.4,104,12.1,-2.69,96.6,109,1600,-0.102,62800,64500
"CEA/CD3OPT2 (bispecific antibody, V domains shown) VH 1: EVQLVESGGGLVQPGGSLRLSCAASGFNIKDTYMHWVRQAPGKGLEWVARIDPAQGNTKYADSVKGRFTISADTSKNTAYLQMNSLRAEDTAVYYCAPFGYYVSDYAMAYWGQGTLVTVSS VL 1: DIQLTQSPSSLSASVGDRVTITCRAGESVDIFGVGFLHWYQQKPGKAPKLLIYRASNLESGVPSRFSGSGSRTDFTLTISSLQPEDFATYYCQQTNEDPYTFGQGTKVEIK VH 2: EVQLVESGGGLVKPGGSLKLSCAASGFTFNKYAMNWVRQAPGKGLEWVARIRSNYNNYATTFADSVKDRFTISRDDSKNTAYLQMNNLRTEDTAVYYCVRHGNFGNSYISYWAYWGQGTTVTVSS VL 2: not shown",88.9,-2.09,-30.4,58.5,,,,,,,,,,,,,,,,
"CEA/CD3OPT1a3b2a (bispecific antibody, V domains shown, Same format as m1; also called OPT SP34 1a3b2a; copies: 2 + 2 + 2 + 2) VH 1: EVQLVESGGGLVQPGGSLRLSCAASGFNIKDTYMHWVRQAPGKGLEWVARIDPAQGNTKYADSVKGRFTISADTSKNTAYLQMNSLRAEDTAVYYCAPFGYYVSDYAMAYWGQGTLVTVSS VL 1: DIQLTQSPSSLSASVGDRVTITCRAGESVDIFGVGFLHWYQQKPGKAPKLLIYRASNLESGVPSRFSGSGSRTDFTLTISSLQPEDFATYYCQQTNEDPYTFGQGTKVEIK VH 2: EVQLVESGGGLVKPGGSLKLSCAASGFTFSTYAMNWVRQAPGKGLEWVARIRSNYNNYATYYADSVKDRFTISRDDSKNTAYLQMNNLRTEDTAVYYCVRHGNWGNSYISYWAYWGQGTTVTVSS VL 2: not shown",,,,,0.00337,-1.81,4.06,4.06,63.8,-0.332,34.6,98.5,11.3,-1.92,93.6,105,3100,-0.27,10700,13800
